According to PMC6860926 (Journal of the American Chemical Society, 2019):

Molecular target: human GLP-1 receptor (GLP-1R), stably expressed in FlpIn CHO cells (human) (UniProt P43220)
UniProt P43220, sequence (P43220 24-463): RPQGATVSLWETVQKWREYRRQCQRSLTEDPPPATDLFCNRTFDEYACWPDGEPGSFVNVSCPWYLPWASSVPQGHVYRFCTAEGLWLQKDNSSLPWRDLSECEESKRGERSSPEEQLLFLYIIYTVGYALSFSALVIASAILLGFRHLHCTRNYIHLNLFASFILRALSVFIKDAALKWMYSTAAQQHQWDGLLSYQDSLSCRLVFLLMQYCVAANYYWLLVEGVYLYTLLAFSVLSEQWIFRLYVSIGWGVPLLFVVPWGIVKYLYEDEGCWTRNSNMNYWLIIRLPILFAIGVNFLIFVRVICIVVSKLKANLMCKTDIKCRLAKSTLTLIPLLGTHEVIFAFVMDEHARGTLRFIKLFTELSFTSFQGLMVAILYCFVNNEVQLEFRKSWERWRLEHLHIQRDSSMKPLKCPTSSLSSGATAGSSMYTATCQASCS

cAMP accumulation in FlpIn CHO cells stably expressing human GLP-1R, pEC50: 10.8
Substance: glucagon-like peptide-1 [GLP-1(7–37)]
